Laboratory results: patent publication US12398179 (SANFORD BURNHAM PREBYS MEDICAL DISCOVERY INSTITUTE, dated 2025)
Like-named read-outs stand apart in the source and are kept apart here. Non-standard residues stand in square brackets, D forms with d. No end group written: not given here. *: point of attachment. Biotin = O=C1N[C@H]2[C@H](CS[C@H]2CCCCC(=O)*)N1; βAla = NCCC(=O)O

Columns and labels:
[1] = target: the molecule itself; assay: quantitative FRET in HEK293 cells, monomer-dimer fit; dimerization of the mutant without peptide; row assigned as for Kdiss
[2] = target: the molecule itself; assay: quantitative FRET in HEK293 cells, monomer-dimer fit; dimerization of the mutant in the presence of 50 µM YSA-GSGSK-bio; row assigned as for Kdiss
[3] = target: T1, endogenous EphA2 expressed in PC3 prostate cancer cells (UniProt P29317 24-976, limits assumed); assay: cell-based or functional assay
[4] = target: T1, endogenous EphA2 expressed in PC3 …; assay: cell-based or functional assay; remark: listed apart in the source
[5] = target: T2, EphA2 extracellular domain fused to the Fc portion of an antibody (EphA2 Fc); assay: competition ELISA: inhibition of ephrin-A5 AP binding to immobilized EphA2 Fc; average ± SE (number of experiments)
T2 construct: extracellular domain; Immobilized in the ELISAs
T2 sequence (P29317 whole entry, the tested form may be a part): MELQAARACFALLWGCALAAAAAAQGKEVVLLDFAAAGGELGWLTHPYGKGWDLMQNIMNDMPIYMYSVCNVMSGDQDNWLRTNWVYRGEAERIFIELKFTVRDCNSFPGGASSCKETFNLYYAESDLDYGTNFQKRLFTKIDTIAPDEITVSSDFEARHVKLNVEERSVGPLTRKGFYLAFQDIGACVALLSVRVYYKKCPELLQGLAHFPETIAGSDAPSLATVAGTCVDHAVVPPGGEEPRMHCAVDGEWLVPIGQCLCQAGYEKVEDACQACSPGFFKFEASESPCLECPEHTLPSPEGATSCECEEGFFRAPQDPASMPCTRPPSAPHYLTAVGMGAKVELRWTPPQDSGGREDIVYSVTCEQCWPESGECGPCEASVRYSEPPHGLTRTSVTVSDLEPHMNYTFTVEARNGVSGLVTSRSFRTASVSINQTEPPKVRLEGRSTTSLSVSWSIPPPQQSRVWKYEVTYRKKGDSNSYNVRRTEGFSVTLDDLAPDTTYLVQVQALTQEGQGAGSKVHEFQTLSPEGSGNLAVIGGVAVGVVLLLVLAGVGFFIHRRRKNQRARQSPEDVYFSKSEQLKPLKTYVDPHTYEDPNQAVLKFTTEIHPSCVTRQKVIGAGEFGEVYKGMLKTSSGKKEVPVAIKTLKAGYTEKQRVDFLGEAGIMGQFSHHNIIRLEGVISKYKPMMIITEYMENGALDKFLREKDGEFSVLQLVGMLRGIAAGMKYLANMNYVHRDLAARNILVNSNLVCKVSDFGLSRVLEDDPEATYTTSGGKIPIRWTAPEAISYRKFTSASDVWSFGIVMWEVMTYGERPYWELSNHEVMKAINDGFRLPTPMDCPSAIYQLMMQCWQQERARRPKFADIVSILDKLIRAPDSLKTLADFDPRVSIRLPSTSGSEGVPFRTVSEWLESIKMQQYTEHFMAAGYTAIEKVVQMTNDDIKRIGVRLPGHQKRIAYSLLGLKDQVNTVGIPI

[6] = target: T2, EphA2 extracellular domain fused to the …; assay: ELISA, inhibition of ephrin-A5 AP binding to immobilized EphA2 Fc; representative experiment; concentrations in nM
[7] = target: T1, endogenous EphA2 expressed in PC3 …; assay: cell-based or functional assay; remark: listed apart in the source
[8] = target: T3, EphA2 ligand binding domain (EphA2 LBD, residues 28-200) with N-terminal MASQGPG and C-terminal Ala-6xHis tag (UniProt P29317 28-200); assay: ITC, peptide titrated into EphA2 LBD, 23 °C; average ± SE (number of experiments)
T3 construct: range 28-200; Expressed in E. coli Origami 2 (DE3); used for ITC and crystallization
T3 sequence (P29317 other isoform, or with tags, fused parts or gaps limits assumed, form in doubt): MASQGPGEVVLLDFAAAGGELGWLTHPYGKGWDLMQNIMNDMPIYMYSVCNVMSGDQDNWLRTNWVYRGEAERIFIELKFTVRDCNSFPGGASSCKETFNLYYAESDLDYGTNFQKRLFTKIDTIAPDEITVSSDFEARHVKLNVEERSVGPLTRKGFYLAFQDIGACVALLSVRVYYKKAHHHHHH
Method: For ITC, all peptides were dissolved in DMSO and both the EphA2 LBD and the peptides were diluted to obtain a final buffer containing 9.5 mM HEPES, pH 7.9, 95 mM NaCl, and 5% DMSO. […] Two-microliter aliquots of a peptide solution were injected into the cell containing 205 µL EphA2 LBD. 200-400 µM peptides were titrated into 20-40 µM EphA2 LBD. Experimental data were analyzed using the Origin software package (Microcal). The integrated values for the reaction heats were normalized to the amount of injected peptide after blank subtraction.

[9] = target: T2, EphA2 extracellular domain fused to the …; assay: competition ELISA: inhibition of ephrin-A5 AP binding to EphA2 Fc
[10] = target: T1, endogenous EphA2 expressed in PC3 …; assay: cell-based or functional assay; remark: listed apart in the source
[11] = target: T1, endogenous EphA2 expressed in PC3 …; assay: cell-based or functional assay; remark: listed apart in the source
[12] = target: T1, endogenous EphA2 expressed in PC3 …; assay: cell-based or functional assay; remark: listed apart in the source
[13] = target: T1, endogenous EphA2 expressed in PC3 …; assay: cell-based or functional assay; remark: listed apart in the source
[14] = target: T1, endogenous EphA2 expressed in PC3 …; assay: cell-based or functional assay; remark: listed apart in the source

B1: L223R/L254R/V255R (receptor)
chain: AQGKEVVLLDFAAAGGELGWLTHPYGKGWDLMQNIMNDMPIYMYSVCNVMSGDQDNWLRTNWVYRGEAERIFIELKFTVRDCNSFPGGASSCKETFNLYYAESDLDYGTNFQKRLFTKIDTIAPDEITVSSDFEARHVKLNVEERSVGPLTRKGFYLAFQDIGACVALLSVRVYYKKCPELLQGLAHFPETIAGSDAPSRATVAGTCVDHAVVPPGGEEPRMHCAVDGEWRRPIGQCLCQAGYEKVEDACQACSPGFFKFEASESPCLECPEHTLPSPEGATSCECEEGFFRAPQDPASMPCTRPPSAPHYLTAVGMGAKVELRWTPPQDSGGREDIVYSVTCEQCWPESGECGPCEASVRYSEPPHGLTRTSVTVSDLEPHMNYTFTVEARNGVSGLVTSRSFRTASVSINQTEPPKVRLEGRSTTSLSVSWSIPPPQQSRVWKYEVTYRKKGDSNSYNVRRTEGFSVTLDDLAPDTTYLVQVQALTQEGQGAGSKVHEFQTLSPEGSGNLAVIGGVAVGVVLLLVLAGVGFFIHRRRKNQRARQSPEDVYFSKSEQLKPLKTYVDPHTYEDPNQAVLKFTTEIHPSCVTRQKVIGAGEFGEVYKGMLKTSSGKKEVPVAIKTLKAGYTEKQRVDFLGEAGIMGQFSHHNIIRLEGVISKYKPMMIITEYMENGALDKFLREKDGEFSVLQLVGMLRGIAAGMKYLANMNYVHRDLAARNILVNSNLVCKVSDFGLSRVLEDDPEATYTTSGGKIPIRWTAPEAISYRKFTSASDVWSFGIVMWEVMTYGERPYWELSNHEVMKAINDGFRLPTPMDCPSAIYQLMMQCWQQERARRPKFADIVSILDKLIRAPDSLKTLADFDPRVSIRLPSTSGSEGVPFRTVSEWLESIKMQQYTEHFMAAGYTAIEKVVQMTNDDIKRIGVRLPGHQKRIAYSLLGLKDQVNTVGIPI
modifications: A C-terminal fluorescent protein tag (mTURQ donor or EYFP acceptor) is not carried in the letters.
notes: also called EphA2 L223R/L254R/V255R; clustering interface triple mutant; not shown: C-terminal fluorescent protein (mTURQ or EYFP) and any linker to it
ΔG of dimerization [1]: -15.9 kJ/mol
ΔG of dimerization [2]: -20.9 kJ/mol

[βAla]WLAYPDSVPYRPK(Biotin)-NH2 [βA-WLA-YRPKam-bio]
EC50 of EphA2 pY588 induction, immunoblot, PC3 cells, 15 min [3]: 100 nM
IC50 of AKT S473 phosphorylation (pAKT), immunoblot, PC3 cells, 15 min [3]: 210 nM

[βAla]WLAYPDSVPYRPK(Ac) [βA-WLA-YRP-acK]
EC50 of EphA2 pY588 induction, immunoblot, PC3 cells, 15 min [4]: 190 nM
IC50 of AKT S473 phosphorylation (pAKT), immunoblot, PC3 cells, 15 min [4]: 370 nM

B2: βA-WLA-YSK-bio (peptide)
peptide: [βAla]WLAYPDSVPYSK(Biotin)
notes: also called bA-WLA-YSK-bio; BA-WLA-YSK-bio
IC50 [5]: 0.3 µM

B3: βA-WLA-YRPK-bio (peptide)
peptide: [βAla]WLAYPDSVPYRPK(Biotin)
notes: also called bA-WLA-YRPK-bio; BA-WLA-YRPK-bio
IC50 [6]: 0.037 µM

[βAla]WLAYPDSVPYRPK-NH2 (also called BA-WLA-YRPKam) [βA-WLA-YRPKam]
IC50 [6]: 0.024 µM
IC50 [5]: 0.019 µM
EC50 of restoration of pAKT (S473) in cells treated with 0.1 µg/ml ephrin-A1 Fc, immunoblot, PC3 cells [7]: 2.4 µM
IC50 of inhibition of EphA2 pY588 induced by 0.1 µg/ml ephrin-A1 Fc, immunoblot, PC3 cells [7]: 3.2 µM
Kd [8]: 0.11 µM

[βAla]WLAYPDSVPY-NH2 (also called bA-WLA-Yam; BA-WLA-Yam) [βA-WLA-Yam]
IC50 [6]: 0.44 µM
IC50 [5]: 0.41 µM
fold improvement in potency against βA-WLAam [9]: ~2 fold

B4: YSA-GSGSK-bio (peptide)
peptide: YSAYPDSVPMMSGSGSK(Biotin)
notes: YSA with C-terminal GSGSK linker and biotin on the lysine side chain; also called YSA-GSGSK-biotin; YSA-GSGSK-bio peptide
IC50 [5]: 0.82 µM

YSAYPDSVPMMSGSGSK [YSA-GSGSK]
IC50 [6]: 4.5 µM
IC50 [5]: 4.5 µM
Kd [8]: 8 µM

[βAla]WLAYPDSVPYGSK(Biotin) [βA-WLA-YGSK-bio]
EC50 of EphA2 pY588 induction, immunoblot, PC3 cells, 15 min [10]: 2.2 µM
IC50 of AKT S473 phosphorylation (pAKT), immunoblot, PC3 cells, 15 min [10]: 0.93 µM

[βAla]WLAYPDSVPYK(Biotin) [βA-WLA-YK-bio]
IC50 of AKT S473 phosphorylation (pAKT), immunoblot, PC3 cells, 15 min [11]: 0.97 µM

KAWLAYPDSVPYRPK (biotin on the N-terminal lysine (K-bio); C-terminal amide (am)) [K-bioA-WLA-YRPKam]
IC50 [6]: 0.014 µM

[βAla]WLAYPDSVPYSPK(Biotin) [βA-WLA-YSPK-bio]
EC50 of EphA2 pY588 induction, immunoblot, PC3 cells, 15 min [12]: 37 nM
IC50 of AKT S473 phosphorylation (pAKT), immunoblot, PC3 cells, 15 min [12]: 30 nM

[βAla]WLAYPDSVPYRPK (also called BA-WLA-YRPK) [βA-WLA-YRPK]
EC50 of EphA2 pY588 induction, immunoblot, PC3 cells, 15 min [13]: 300 nM
IC50 of AKT S473 phosphorylation (pAKT), immunoblot, PC3 cells, 15 min [13]: 500 nM
IC50 [6]: 0.053 µM
IC50 [5]: 0.055 µM
Kd [8]: 0.19 µM

[βAla]WLAYPDSVPYGSGK(Biotin) [βA-WLA-YGSGK-bio]
EC50 of EphA2 pY588 induction, immunoblot, PC3 cells, 15 min [14]: 1 µM
